Test results reported in US20220089765A1, “CD31 COMPETITORS AND USES THEREOF” (ENCEFA, priority 2019, published 2022).

Key:
[1] = system: midbrain dopaminergic (TH+) neurons; assay: MPP+ intoxication model in midbrain cell cultures, survival of DA (TH+) neurons; assay type: cell-based, Wistar rat
Protocol: For this purpose, spontaneously occurring DA cell death was prevented by a treatment combining depolarizing concentrations of K^+ (30 mM) and MK801 (5 μM), a glutamate receptor antagonist used to prevent unwanted excitotoxic insult. The cultures were then exposed to 3 μM MPP between 5 and 7 days in vitro (DIV) to achieve a loss of approximately 50% of DA neurons.
Animals were treated in accordance with the Guide for the Care and Use of Laboratory Animals (National Research Council, 1996), European Directive 86/609, and the guidelines of the local institutional animal care and use committee. Cultures were prepared from the ventral mesencephalon of gestational age 15.5 Wistar rat embryos (Janvier Breeding Center, Le Genest St Isle, France). Dissociated cells in suspension obtained by mechanical trituration of midbrain tissue pieces were seeded at a density of 1.2-1.5×10^5 cells/cm^2 onto tissue culture supports precoated with 1 mg/mL polyethylenimine diluted in borate buffer pH 8.3 as described (Michel et al., 1997. J Neurochem. 69(4):1499-507). The cultures were then maintained in N5 medium supplemented with 5 mM glucose, 5% horse serum, and 0.5% fetal calf serum, except for the first 3 DIV, when the concentration of fetal calf serum was 2.5% to favor initial maturation of the cultures (Guerreiro et al., 2008. Mol Pharmacol. 74(4):980-9). They were fed daily by replacing 70% of the medium. Routinely, mesencephalic cultures were established on Nunc 24-well culture plates (Thermofischer Scientific, Rochester, N.Y.). Note that these cultures contain tyrosine hydroxylase (TH)^+ neurons that were exclusively dopaminergic (Traver et al., 2006. Mol Pharmacol. 70(1):30-40). TH^+ neurons represented approximately 1-2% of the total number of neuronal cells present in these cultures. The evaluation of the survival of DA neurons was performed by counting cells immunopositive for TH as described (Toulorge et al., 2011. Faseb J. 25(8):2563-73).
Treatments with MPP were performed in cultures where the spontaneous death process was prevented by long-term exposure to depolarizing concentrations of K^+ (30 mM), in the presence of the glutamate receptor antagonist MK801 (5 μM) to prevent unwanted excitotoxic insults as described previously (Douhou et al., 2001. J Neurochem. 78(1): 163-74). Treatments with MPP and potential neuroprotective molecules were carried out between 5 and 7 DIV.
The cultures were fixed for 12 min using 4% formaldehyde in Dulbecco's phosphate-buffered saline (PBS), then washed twice with PBS before an incubation step at 4° C. for 24 h with the following antibodies. A monoclonal anti-TH antibody diluted 1/5000 (ImmunoStar, Inc., Hudson, Wis.) was used to assess the survival of DA neurons. Antibody was diluted in PBS containing 0.2% Triton X-100. Detection of the primary antibodies was performed with an Alexa Fluor-488 conjugate of an anti-mouse IgG antibody.

[2] = system: human peripheral blood mononuclear cells (PBMCs); assay: IL-10 release from human PBMCs in vitro (ELISA); assay type: cell-based; conditions: PBMCs from 3 healthy donors; 10 μg/ml; LPS 500 ng/mL and interferon-γ 1B 100 ng/mL; 24 hours
Protocol: 3 healthy volunteers (Donor 1: Donor 2: Donor 3) served as blood donors. Venous blood (5 mL) was collected into heparinized tubes and immediately processed. Briefly, blood was diluted 1/1 in pre-warmed RPMI 1640 medium. PBMCs were isolated using gradient centrifugation in Ficoll solution (Sigma; 300×g, 30 min). Isolated PBMCs were re-suspended in 1 volume of pre-warmed RPMI 1640 medium and centrifuged again (300×g, 30 min). PBMCs were re-suspended in RPMI 1640 medium supplemented with 10% human serum (Sigma-Aldrich) at a concentration of 10^7 cells per mL. Cells were seeded in 96 well microplate (100 μL per well). Test compounds (10 μg/ml), LPS (500 ng/mL) and interferon-γ 1B (100 ng/mL) were added to PBMCs culture immediately after plating. After 24 hours, cell culture supernatants were collected and frozen at −80° C. for further processing.
IL-10 levels in cell culture supernatants were assayed using an ELISA human IL-10 kit (Ozyme®) according to the indications for use specified by the manufacturer.

[3] = system: Dextran Sulfate Sodium (DSS)-induced colitis mouse model; assay: DSS-induced colitis mouse model, colon length; assay type: in vivo, mice; conditions: 15 mg/kg iv when DSS treatment began; 3% DSS for 5 days
Text: Administration of DSS causes human ulcerative colitis-like pathologies due to its toxicity to colonic epithelial cells, which results in compromised mucosal barrier function. Clinical observations similar to human pathologies, such as weight loss, diarrhea and occult blood in stool, are commonly observed in the DSS model. Moreover, diminution of the colon's length is characteristic of this model.
Experimental colitis was induced in mice by giving drinking water ad libitum containing 3% (w/v) DSS for 5 days, while control mice received tap water only. Test compounds were intravenously administered (15 mg/kg) when DSS treatment began. Mice were sacrificed 9 days after the beginning of DSS treatment.

B1: Clone B08: anti-human CD38 antibody, HCVR SEQ ID NO: 33 and LCVR SEQ ID NO: 39 (antibody, V domains shown)
VH: EVQLVESGGSLVKPGGSLRLSCAASGFTFSNYYMNWVRQAPGKGLEWISSISGSSRSIYYADFVKGRFTISRDNAKNSLYLQMNSLRAEDTAVYYCVRSSDDYYYDYGMDVWGRGTLVTVSS
VL: QSVLTQPASVSGSPGQSITISCAGTSSDVGGSYSVSWYQQHPGKAPKLMIYDDSNRPSGVSNRFSGSKSGNTASLTISGLQAEDEADYYCSSYTDYSTRVFGGGTKL
modifications: HCVR B08; LCVR B08
neuroprotective effect against MPP+-induced DA cell death, compared with reference clone HB7 ([1]; 3 μM MPP+ between 5 and 7 DIV, each clone and HB7 0.5 μg/mL): stronger neuroprotective effect | neuroprotective effect in the presence of the lysosomal exocytosis inhibitor vacuolin-1 ([1]; 3 μM MPP+, test substance 1 μg/mL, vacuolin-1 10 μM): antagonized | IL-10 release [2]: statistically significantly increased | diminution of the colon's length [3]: statistically significantly repressed
